The supplement of paper PMC12667976

B1: library; numbered along this chain (parent)
chain: MATDAALRRLLRLHRTEIAVAVDSAFPLLHALADHDVVPEDKFQETLHLKEKEGCPQAFHALLSWLLTQDSTAILDFWRVLFKDYNLERYGRLQPILDSFPKDVDLSQPRKGRKPPAVPKALVPPPRLPTKRKASEEARAAAPAALTPRGTASPGSQLKAKPPKKPESSAEQQRLPLGNGIQTMSASVQRAVAMSSGDVPGARGAVEGILIQQVFESGGSKKCIQVGGEFYTPSKFEDSGSGKNKARSSSGPKPLVRAKGAQGAAPGGGEARLGQQGSVPAPLALPSDPQLHQKNEDECAVCRDGGELICCDGCPRAFHLACLSPPLREIPSGTWRCSSCLQATVQEVQPRAEEPRPQEPPVETPLPPGLRSAGEEVRGPPGEPLAGMDTTLVYKHLPAPPSAAPLPGLDSSALHPLLCVGPEGQQNLAPGARCGVCGDGTDVLRCTHCAAAFHWRCHFPAGTSRPGTGLRCRSCSGDVTPAPVEGVLAPSPARLAPGPAKDDTASHEPALHRDDLESLLSEHTFDGILQWAIQSMARPAAPFPS

Variants of: B1
Test: AIRE transcriptional activation functional score (insulin promoter-GFP; nonsense median 0, synonymous median 1) (normalised score); higher = higher AIRE activity (more reporter activation)
Conditions: with insulin promoter-GFP reporter in HEK293
Summary of the method: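 The functional score compares variant enrichment between select and non-select populations after subtracting wild type. To obtain it, codon-optimized AIRE NNN-codon libraries spanning three regions were placed by Bxb1 recombinase into Flp-In T-REx HEK293 landing-pad cells with an insulin core promoter-GFP reporter. Cells with the top 10% GFP and unselected integrants were tile-sequenced after mCherry+, BFP− integrants had been sorted at day 7 and grown 7 more days. Only variants with 10 counts per million in non-select were kept, rescaled to nonsense median 0 and synonymous median 1, and averaged across biological replicates.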

AIRE transcriptional activation functional score of substitutions, site by site:
S506: Y 1.42; F 0.873; V 0.824; D 1.11; R 0.768; E 0.655; N 0.728; C 1.39; H 1.08; L 0.875; M 0.671; A 1.36; I 1.63; P 1.11; T 0.197; Q 0.92
P499: C 0.764; D 0.797; G 1.31; V 1.21; Y 1.13; S 1.1; A 1.22; K 0.747; Q 1.15; L 1.11; W 1.37; F 1.11; H 1.16; R 0.761; T 1.32; I 1.18; N 0.266; E 0.508
A496: P 0.91; E 0.99; G 0.999; I 1.04; W 1.64; F 1.07; Y 1.07; T 0.81; K 0.412; M 1.5; N 0.726; Q 1.04; R 0.864; H 1.29; D 0.267; C 1.01; S 1.02; V 0.988; L 1.15
A505: M 0.663; F 0.703; I 1.09; T -0.258; P 1.01; G 0.337; S 0.985; K 0.78; H -0.421; Y 1.59; C 0.52; D 0.657; L 0.848; E 0.669; V 0.997; R 0.832
P497: I 1.13; L 1.34; D 0.292; T 1.09; Y 1.1; R 0.646; E 0.495; A 1.16; V 1.19; W 0.669; H 0.871; S 0.852; F 1.03; G 1.29; N 1.05
